Assay results published in patent US20210388087A1 (Chugai, published 2021).

Target: T1, Human CD137 ECD (human)
T1 construct: entry includes C-terminal His-tag and biotin acceptor peptide; also called human CD137 extracellular domain; 4-1BB
Assay: Biacore SPR, vs parent H183/L072

T1 sequence (chain, as listed by the source limits assumed): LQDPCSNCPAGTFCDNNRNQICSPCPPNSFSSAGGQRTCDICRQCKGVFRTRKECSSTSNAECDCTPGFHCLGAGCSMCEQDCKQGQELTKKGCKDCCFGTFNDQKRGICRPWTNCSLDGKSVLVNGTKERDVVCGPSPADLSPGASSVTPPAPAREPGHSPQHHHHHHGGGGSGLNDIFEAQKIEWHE

fold change of affinity | Binder
1 fold | H183/L072 VL S52T (antibody, name in Kabat numbering, V domains shown, Dual-Ig) VH: QVQLVESGGGLVQPGRSLRLSCAASGFTFSNAWMHWVRQAPGKGLEWVAQIKDKGNAYAAYYAPSVKGRFTISRDDSKNSIYLQMNSLKTEDTAVYYCHYVHYASASTVLPAFGVDAWGQGTTVTVSS VL: DIVMTQSPLSLPVTPGEPASISCQASQELVHMNRNTYLHWYQQKPGQAPRLLIYKVTNRFPGVPDRFSGSGSGTDFTLKISRVEAEDVGVYYCAQGTSVPFTFGQGTKLEIK
1 fold | H183/L072 VL S52W (antibody, name in Kabat numbering, V domains shown, Dual-Ig) VH: QVQLVESGGGLVQPGRSLRLSCAASGFTFSNAWMHWVRQAPGKGLEWVAQIKDKGNAYAAYYAPSVKGRFTISRDDSKNSIYLQMNSLKTEDTAVYYCHYVHYASASTVLPAFGVDAWGQGTTVTVSS VL: DIVMTQSPLSLPVTPGEPASISCQASQELVHMNRNTYLHWYQQKPGQAPRLLIYKVWNRFPGVPDRFSGSGSGTDFTLKISRVEAEDVGVYYCAQGTSVPFTFGQGTKLEIK
1.2 fold | H183/L072 VL S52K (antibody, name in Kabat numbering, V domains shown, Dual-Ig) VH: QVQLVESGGGLVQPGRSLRLSCAASGFTFSNAWMHWVRQAPGKGLEWVAQIKDKGNAYAAYYAPSVKGRFTISRDDSKNSIYLQMNSLKTEDTAVYYCHYVHYASASTVLPAFGVDAWGQGTTVTVSS VL: DIVMTQSPLSLPVTPGEPASISCQASQELVHMNRNTYLHWYQQKPGQAPRLLIYKVKNRFPGVPDRFSGSGSGTDFTLKISRVEAEDVGVYYCAQGTSVPFTFGQGTKLEIK
1 fold | H183/L072 VL S52Q (antibody, name in Kabat numbering, V domains shown, Dual-Ig) VH: QVQLVESGGGLVQPGRSLRLSCAASGFTFSNAWMHWVRQAPGKGLEWVAQIKDKGNAYAAYYAPSVKGRFTISRDDSKNSIYLQMNSLKTEDTAVYYCHYVHYASASTVLPAFGVDAWGQGTTVTVSS VL: DIVMTQSPLSLPVTPGEPASISCQASQELVHMNRNTYLHWYQQKPGQAPRLLIYKVQNRFPGVPDRFSGSGSGTDFTLKISRVEAEDVGVYYCAQGTSVPFTFGQGTKLEIK
1 fold | H183/L072 VL S52E (antibody, name in Kabat numbering, V domains shown, Dual-Ig) VH: QVQLVESGGGLVQPGRSLRLSCAASGFTFSNAWMHWVRQAPGKGLEWVAQIKDKGNAYAAYYAPSVKGRFTISRDDSKNSIYLQMNSLKTEDTAVYYCHYVHYASASTVLPAFGVDAWGQGTTVTVSS VL: DIVMTQSPLSLPVTPGEPASISCQASQELVHMNRNTYLHWYQQKPGQAPRLLIYKVENRFPGVPDRFSGSGSGTDFTLKISRVEAEDVGVYYCAQGTSVPFTFGQGTKLEIK
1.2 fold | H183/L072 VL S52L (antibody, name in Kabat numbering, V domains shown, Dual-Ig) VH: QVQLVESGGGLVQPGRSLRLSCAASGFTFSNAWMHWVRQAPGKGLEWVAQIKDKGNAYAAYYAPSVKGRFTISRDDSKNSIYLQMNSLKTEDTAVYYCHYVHYASASTVLPAFGVDAWGQGTTVTVSS VL: DIVMTQSPLSLPVTPGEPASISCQASQELVHMNRNTYLHWYQQKPGQAPRLLIYKVLNRFPGVPDRFSGSGSGTDFTLKISRVEAEDVGVYYCAQGTSVPFTFGQGTKLEIK
0.8 fold | H183/L072 VL S52G (antibody, name in Kabat numbering, V domains shown, Dual-Ig) VH: QVQLVESGGGLVQPGRSLRLSCAASGFTFSNAWMHWVRQAPGKGLEWVAQIKDKGNAYAAYYAPSVKGRFTISRDDSKNSIYLQMNSLKTEDTAVYYCHYVHYASASTVLPAFGVDAWGQGTTVTVSS VL: DIVMTQSPLSLPVTPGEPASISCQASQELVHMNRNTYLHWYQQKPGQAPRLLIYKVGNRFPGVPDRFSGSGSGTDFTLKISRVEAEDVGVYYCAQGTSVPFTFGQGTKLEIK
1.4 fold | H183/L072 VL S52I (antibody, name in Kabat numbering, V domains shown, Dual-Ig) VH: QVQLVESGGGLVQPGRSLRLSCAASGFTFSNAWMHWVRQAPGKGLEWVAQIKDKGNAYAAYYAPSVKGRFTISRDDSKNSIYLQMNSLKTEDTAVYYCHYVHYASASTVLPAFGVDAWGQGTTVTVSS VL: DIVMTQSPLSLPVTPGEPASISCQASQELVHMNRNTYLHWYQQKPGQAPRLLIYKVINRFPGVPDRFSGSGSGTDFTLKISRVEAEDVGVYYCAQGTSVPFTFGQGTKLEIK
0.8 fold | H183/L072 VL S52D (antibody, name in Kabat numbering, V domains shown, Dual-Ig) VH: QVQLVESGGGLVQPGRSLRLSCAASGFTFSNAWMHWVRQAPGKGLEWVAQIKDKGNAYAAYYAPSVKGRFTISRDDSKNSIYLQMNSLKTEDTAVYYCHYVHYASASTVLPAFGVDAWGQGTTVTVSS VL: DIVMTQSPLSLPVTPGEPASISCQASQELVHMNRNTYLHWYQQKPGQAPRLLIYKVDNRFPGVPDRFSGSGSGTDFTLKISRVEAEDVGVYYCAQGTSVPFTFGQGTKLEIK
0.7 fold | H183/L072 VL S93D (antibody, name in Kabat numbering, V domains shown, Dual-Ig) VH: QVQLVESGGGLVQPGRSLRLSCAASGFTFSNAWMHWVRQAPGKGLEWVAQIKDKGNAYAAYYAPSVKGRFTISRDDSKNSIYLQMNSLKTEDTAVYYCHYVHYASASTVLPAFGVDAWGQGTTVTVSS VL: DIVMTQSPLSLPVTPGEPASISCQASQELVHMNRNTYLHWYQQKPGQAPRLLIYKVSNRFPGVPDRFSGSGSGTDFTLKISRVEAEDVGVYYCAQGTDVPFTFGQGTKLEIK
1.1 fold | H183/L072 VL S52M (antibody, name in Kabat numbering, V domains shown, Dual-Ig) VH: QVQLVESGGGLVQPGRSLRLSCAASGFTFSNAWMHWVRQAPGKGLEWVAQIKDKGNAYAAYYAPSVKGRFTISRDDSKNSIYLQMNSLKTEDTAVYYCHYVHYASASTVLPAFGVDAWGQGTTVTVSS VL: DIVMTQSPLSLPVTPGEPASISCQASQELVHMNRNTYLHWYQQKPGQAPRLLIYKVMNRFPGVPDRFSGSGSGTDFTLKISRVEAEDVGVYYCAQGTSVPFTFGQGTKLEIK
0.3 fold | H183/L072 VL S52P (antibody, name in Kabat numbering, V domains shown, Dual-Ig) VH: QVQLVESGGGLVQPGRSLRLSCAASGFTFSNAWMHWVRQAPGKGLEWVAQIKDKGNAYAAYYAPSVKGRFTISRDDSKNSIYLQMNSLKTEDTAVYYCHYVHYASASTVLPAFGVDAWGQGTTVTVSS VL: DIVMTQSPLSLPVTPGEPASISCQASQELVHMNRNTYLHWYQQKPGQAPRLLIYKVPNRFPGVPDRFSGSGSGTDFTLKISRVEAEDVGVYYCAQGTSVPFTFGQGTKLEIK

Second part, the binder before the results:

Binder | fold change of affinity
H183/L072 VL S26Y (antibody, name in Kabat numbering, V domains shown, Dual-Ig) VH: QVQLVESGGGLVQPGRSLRLSCAASGFTFSNAWMHWVRQAPGKGLEWVAQIKDKGNAYAAYYAPSVKGRFTISRDDSKNSIYLQMNSLKTEDTAVYYCHYVHYASASTVLPAFGVDAWGQGTTVTVSS VL: DIVMTQSPLSLPVTPGEPASISCQAYQELVHMNRNTYLHWYQQKPGQAPRLLIYKVSNRFPGVPDRFSGSGSGTDFTLKISRVEAEDVGVYYCAQGTSVPFTFGQGTKLEIK | 0.2 fold
H183/L072 VL S52R (antibody, name in Kabat numbering, V domains shown, Dual-Ig) VH: QVQLVESGGGLVQPGRSLRLSCAASGFTFSNAWMHWVRQAPGKGLEWVAQIKDKGNAYAAYYAPSVKGRFTISRDDSKNSIYLQMNSLKTEDTAVYYCHYVHYASASTVLPAFGVDAWGQGTTVTVSS VL: DIVMTQSPLSLPVTPGEPASISCQASQELVHMNRNTYLHWYQQKPGQAPRLLIYKVRNRFPGVPDRFSGSGSGTDFTLKISRVEAEDVGVYYCAQGTSVPFTFGQGTKLEIK | 1 fold
H183/L072 VL S52V (antibody, name in Kabat numbering, V domains shown, Dual-Ig) VH: QVQLVESGGGLVQPGRSLRLSCAASGFTFSNAWMHWVRQAPGKGLEWVAQIKDKGNAYAAYYAPSVKGRFTISRDDSKNSIYLQMNSLKTEDTAVYYCHYVHYASASTVLPAFGVDAWGQGTTVTVSS VL: DIVMTQSPLSLPVTPGEPASISCQASQELVHMNRNTYLHWYQQKPGQAPRLLIYKVVNRFPGVPDRFSGSGSGTDFTLKISRVEAEDVGVYYCAQGTSVPFTFGQGTKLEIK | 1.3 fold
H183/L072 VL S52A (antibody, name in Kabat numbering, V domains shown, Dual-Ig) VH: QVQLVESGGGLVQPGRSLRLSCAASGFTFSNAWMHWVRQAPGKGLEWVAQIKDKGNAYAAYYAPSVKGRFTISRDDSKNSIYLQMNSLKTEDTAVYYCHYVHYASASTVLPAFGVDAWGQGTTVTVSS VL: DIVMTQSPLSLPVTPGEPASISCQASQELVHMNRNTYLHWYQQKPGQAPRLLIYKVANRFPGVPDRFSGSGSGTDFTLKISRVEAEDVGVYYCAQGTSVPFTFGQGTKLEIK | 1 fold
H183/L072 VL S52F (antibody, name in Kabat numbering, V domains shown, Dual-Ig) VH: QVQLVESGGGLVQPGRSLRLSCAASGFTFSNAWMHWVRQAPGKGLEWVAQIKDKGNAYAAYYAPSVKGRFTISRDDSKNSIYLQMNSLKTEDTAVYYCHYVHYASASTVLPAFGVDAWGQGTTVTVSS VL: DIVMTQSPLSLPVTPGEPASISCQASQELVHMNRNTYLHWYQQKPGQAPRLLIYKVFNRFPGVPDRFSGSGSGTDFTLKISRVEAEDVGVYYCAQGTSVPFTFGQGTKLEIK | 1.2 fold
H183/L072 VL S93A (antibody, name in Kabat numbering, V domains shown, Dual-Ig) VH: QVQLVESGGGLVQPGRSLRLSCAASGFTFSNAWMHWVRQAPGKGLEWVAQIKDKGNAYAAYYAPSVKGRFTISRDDSKNSIYLQMNSLKTEDTAVYYCHYVHYASASTVLPAFGVDAWGQGTTVTVSS VL: DIVMTQSPLSLPVTPGEPASISCQASQELVHMNRNTYLHWYQQKPGQAPRLLIYKVSNRFPGVPDRFSGSGSGTDFTLKISRVEAEDVGVYYCAQGTAVPFTFGQGTKLEIK | 0.9 fold
H183/L072 VL S52N (antibody, name in Kabat numbering, V domains shown, Dual-Ig) VH: QVQLVESGGGLVQPGRSLRLSCAASGFTFSNAWMHWVRQAPGKGLEWVAQIKDKGNAYAAYYAPSVKGRFTISRDDSKNSIYLQMNSLKTEDTAVYYCHYVHYASASTVLPAFGVDAWGQGTTVTVSS VL: DIVMTQSPLSLPVTPGEPASISCQASQELVHMNRNTYLHWYQQKPGQAPRLLIYKVNNRFPGVPDRFSGSGSGTDFTLKISRVEAEDVGVYYCAQGTSVPFTFGQGTKLEIK | 1 fold
H183/L072 VL S93E (antibody, name in Kabat numbering, V domains shown, Dual-Ig) VH: QVQLVESGGGLVQPGRSLRLSCAASGFTFSNAWMHWVRQAPGKGLEWVAQIKDKGNAYAAYYAPSVKGRFTISRDDSKNSIYLQMNSLKTEDTAVYYCHYVHYASASTVLPAFGVDAWGQGTTVTVSS VL: DIVMTQSPLSLPVTPGEPASISCQASQELVHMNRNTYLHWYQQKPGQAPRLLIYKVSNRFPGVPDRFSGSGSGTDFTLKISRVEAEDVGVYYCAQGTEVPFTFGQGTKLEIK | 1 fold
H183/L072 VL S52H (antibody, name in Kabat numbering, V domains shown, Dual-Ig) VH: QVQLVESGGGLVQPGRSLRLSCAASGFTFSNAWMHWVRQAPGKGLEWVAQIKDKGNAYAAYYAPSVKGRFTISRDDSKNSIYLQMNSLKTEDTAVYYCHYVHYASASTVLPAFGVDAWGQGTTVTVSS VL: DIVMTQSPLSLPVTPGEPASISCQASQELVHMNRNTYLHWYQQKPGQAPRLLIYKVHNRFPGVPDRFSGSGSGTDFTLKISRVEAEDVGVYYCAQGTSVPFTFGQGTKLEIK | 1.2 fold
